The results in this text go back to article PMC2652481.

This test addresses TAF-4 (UniProt O61707). In words: membrane recruitment of GFP::TAF-4 by Myr::FLAG::OMA-1-FL. The settings on record: sites T239.

Turning to “OMA-1 (from UniProt G5EC86) MBK-2 coexpressed”, the “other: percent of cells with membrane GFP::TAF-4” value by setting is: (reference: kinase-dead MBK-2 (Y237A) coexpressed) “stronger; reference 16”; (reference: no MBK-2 coexpressed) “stronger; reference 8”.

For “OMA-1 (from UniProt G5EC86) T239A with MBK-2”, the “other: percent of cells with membrane GFP::TAF-4” value (reference: wild type OMA-1-FL with MBK-2) is “weaker; reference 48”.
